Protein production data for 9 sequences are collected here from a protein production outcome set (Wang et al. 2014).

The nature of this data set: label from the status in PepcDB records.
“MPKKAREWGALDVKRAAHPGDGANVWHAVGGVAGLLLQITPTGAKSWLLRTTVAGTRRAMGLGSYPEVGLAEARERAREAKRKIAAGVDPIEERKATRAALAAAQRRSLTFADAADKWIKAKLSDRPEKSQKAVRATLTAYSFPEIGALTVQELTPQDVVRALNTIWTAKPDTATKMRGYLEAILSWATVSGYRTGDNPARWAGNLKELLPAPSVVAKGRAGNFPAVPVARLADWWEELGQREGMGATALRFAALTAARSGEVRGALWSEVDLDAALWVVPGARMKMGREHRVPLSGPAVALLRGLPRLAGTGDLIFPGPRGGILSDMSVSAVMRRMQEDAETEAKMAGRPVSAAGWRDTRTGRPAVPHGLRSSFRDWAAEVGYDRDMAEIALAHLVGSEVERAYRRSDMLERRRAMMERWADVLAGRSGASVVEFRRA”: the protein production result is on record as “failed”. In the case of “MLEATNTPSKTEEPAAPVNPALAAEAKIARIAVTVFPLLVVVAGVLGFLIPDLFKPMGVAVPYLLGVIMFCMGLTLTPPDFASVARRPWAVALGIVAHYVIMPGAGWLIAVLLQLPPELAVGLILVGCAPSGTASNVMAFLAKGDVALSVAVASVSTLIAPIVTPTLTLFLAGSFLHIDAGAMVMDIVKTVLLPVIAGLLARLFLSKLVAKVLPALPWASAVVISLIVAIVVAGSASKIVAAGAIVFLAVVLHNGFGLGLGYLAGKLGRLDDKARRALAFEVGMQNSGLAATLATAHFSPLAALPSAVFSLWHNISGAIVAAWLARRPLKD”, the protein production result was “failed”. On to “MELYQDNKLNNVGNIEINQCDGVIKKENDLHVSVIKPITKKIIHCDNMENKMKINAFYKPVELVEEIKNYVHKGDTHLVKLYEDFKNKKDKKVKMKNEYMTKLKNLHILNMINNKKKENECGVVNKNNIVHFNLFNENEDVTPKIETVYIPKLEKNIEVVSHLKENVNVDYTYMVPKPVVIPIEVPILKFRDHFKIIPIRKKIIPVIKYTDNIIYVDCCVEKPYIVYENVIIPVPCDIPIEQKKYIDKVPPI”, for which the protein production entry is on record as “failed”. Turning to “MTNKGYFWVVASLVLASAAQVLMKSGMLALPSISMTHWPSLSTLMAGWPVVAVLVGIICYGLSMVCWFMVLRYLPLSRAYPLISLSYAVVYLAAVFLPWLNEPMSLRKNLGVLIILLGVWLVSRDAQATK”, the protein production result is “failed”.

For “YTVEPVQDGERSVTLRRAGGTPLVAAMYHLPAAGSPDFVGLDLAATILADTPSGRLYHALVPTKLASGVFGFTMDQLDPGLAMFGAQLQPGMDQDKALQTLTATLESLSSKPFSQEELERARSKWLTAWQQTYADPEKVGVALSEAIASGDWRLFFLQRDRVRDAKLDDVQRAAVAYLVRSNRTEGRYIPTEKPQRAPLAQRADLAAV”, the protein production result was “not failed”. Turning to “MSESTAPSDTVLLRGGEVHSPADPFATAMVVERGQVAWVGSEGAADAFSAGVDEVVDLEGALVTPAFTDAHVHTTSTGLALTGLDLSGAPSLEAALALVRDFAAARPDDRVLLGHGWDTARWPGGRPPTRAELDEAADGRPLYLSRIDVHSAVVSTALLDLVPGITGRAGYLDGPLTRDAHHAVRGAALGAVSPAQRTEAQRAALAHAASLGIGSVHECAGPEISSEDDFTGLLRLAAEETGPRVVGYWAEWGEEGIDRARALGAVGAAGDLFVDGALGSHTACLHQPYSDAGHTGTAYLDDDAVAAHVIACTEAGLQAGFHAIGDAAVTSVVEGVRAAAEKVGLARVRAARHRVEHAEMLTPETIAAFAELGLTASVQPAFDALWGGADGMYAQRLGAERARTLNPFAALLRAGVPLAFGSDSPVTPLDPWGTVRAAAFHRTPEHRVSVRAAFTAHTRGGWRAIGRDDAGVLVPGAPADYAVWRTEELVVQAPDDRVARWSTDPRSGTPGLPDLTPGGDLPVCLRTVVGGRTVFVRPNE”, the protein production entry was “failed”.

As for “SVTIDHTTENAAPAQAPVSDRAWALFRALDGKGLVPDGYVEGWKKTFEEDFSPRRGAELVARAWTPRRGAELVARAWTDPEFRQLLLTDGTAAVAQYGYLGPQGEYIVAVEDTPTLKNVIVCSLCSCTAWPILGLPPTWYKSFEYRARVVREPRKVLSEMGTEIASDIEIRVYDTTAETRYMVLPQRPAGTEGWSQEQLQEIVTKDCLIGVAIPQVPTV”, the protein production result was “not failed”. Take “EEKYVTVQPYTSQSKDEIGFEKGVTVEVIRKNLEGWWYIRYLGKEGWAPASYLKKAKD”: the protein production result is “not failed”.

Take “MYKLSLVIKSLIIALLTTSLLSAGFQLRGDYLLDDDLQTLYVSSSDIHGELTRLVKLNLTRNQVNVLKHSKADVPELRILSDKLDRRTLSLFSNGQVAEYELIYSVHYQVRFTGEDARDFRFELYRDYQDDPNIALAKSRELSLLLSEMRTSAADKILRDLARIQRLEHHHHHH”: the protein production result was “failed”.
